Experimental data reported in patent US20250108110A1, “COMBINATION THERAPY FOR USE IN TREATMENT OF NON-SMALL CELL LUNG CANCER” (Alethia Biotherapeutics Inc., priority 2022, published 2025).

Key:
[1] = Pharmacokinetics of AB-16B5 in treated subjects; format: in vivo, human; conditions: preliminary pharmacokinetics data (not shown), 12 mg/kg once weekly
Text: Yet another secondary objective of this study is to determine the pharmacokinetics of AB-16B5 in this subject population.

[2] = tested on: advanced non-small cell lung cancer; conditions: second-line chemotherapy; cited from earlier work

Compound | accumulation of the antibody in the treated subjects over time [1] | efficacy of 50 mg/m^2 once every two weeks versus 75 mg/m^2 once every three weeks [2]
AB-16B5: humanized IgG2 monoclonal antibody targeting sCLU for the inhibition of cancer-associated EMT; light chain SEQ ID NO:14, heavy chain SEQ ID NO:15 | accumulation | –
CC(=O)O[C@@]12CO[C@@H]1C[C@H](O)[C@@]1(C)C(=O)[C@H](O)C3=C(C)[C@@H](OC(=O)[C@H](O)[C@@H](NC(=O)OC(C)(C)C)c4ccccc4)C[C@@](O)([C@@H](OC(=O)c4ccccc4)[C@H]21)C3(C)C [docetaxel] | – | as effective as
